# Experimental data from patent US20240301049A1 (Ablynx, published 2024).
# T1: cyno IL-6 (cynomolgus monkey, UniProt P79341 28-212, limits assumed)
# T1 sequence (looked up): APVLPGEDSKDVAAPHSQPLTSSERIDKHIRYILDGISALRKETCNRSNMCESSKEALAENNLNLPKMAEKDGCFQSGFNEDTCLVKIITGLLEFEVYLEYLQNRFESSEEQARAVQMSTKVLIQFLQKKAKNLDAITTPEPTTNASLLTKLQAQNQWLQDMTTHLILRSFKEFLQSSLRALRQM
# B1: F027200167 (bispecific antibody)
# chain: EVQLVESGGGVVQPGGSLRLSCAASGIIFSINAMGWYRQAPGKQRELVADIFPFGSTEYADSVKGRFTISRDNAKNTVYLQMNSLRPEDTALYYCHSYDPRGDDYWGQGTLVTVSSGGGGSGGGSEVQLVESGGGVVQPGGSLRLSCAASGRTFSSYVMGWFRQAPGKEREFVSTINWAGSRGYYADSVKGRFTISRDNAKNTVYLQMNSLRPEDTALYYCAASAGGFLVPRVGQGYDYWGQGTLVTVSSGGGGSGGGSEVQLVESGGGVVQPGGSLRLSCAASGFTFRSFGMSWVRQAPGKGPEWVSSISGSGSDTLYADSVKGRFTISRDNSKNTLYLQMNSLRPEDTALYYCTIGGSLSRSSQGTLVTVSSGGGGSGGGSEVQLVESGGGVVQPGGSLRLSCTASGFTFSTADMGWFRQAPGKGREFVARISGIDGTTYYDEPVKGRFTISRDNSKNTVYLQMNSLRPEDTALYYCRSPRYADQWSAYDYWGQGTLVKVSS
# B2: F027201027 (bispecific antibody)
# chain: DVQLVESGGGVVQPGGSLRLSCAASGRTFSNYAMAWFRQAPGKEREFVAVISYAGGRTYYADSVKGRFTISRDNAKNTVYLQMNSLRPEDTALYYCAAVDSPLIATHPRGYDYWGQGTLVTVSSGGGGSGGGSEVQLVESGGGVVQPGGSLRLSCAASGFTFRSFGMSWVRQAPGKGPEWVSSISGSGSDTLYADSVKGRFTISRDNSKNTLYLQMNSLRPEDTALYYCTIGGSLSRSSQGTLVTVSSGGGGSGGGSEVQLVESGGGVVQPGGSLRLSCAASGIIFSINAMGWYRQAPGKQRELVADIFPFGSTEYADSVKGRFTISRDNAKNTVYLQMNSLRPEDTALYYCHSYDPRGDDYWGQGTLVTVSSGGGGSGGGSEVQLVESGGGVVQPGGSLRLSCTASGFTFSTADMGWFRQAPGKGREFVARISGIDGTTYYDEPVKGRFTISRDNSKNTVYLQMNSLRPEDTALYYCRSPRYADQWSAYDYWGQGTLVKVSS
# B3: F027200987 (bispecific antibody)
# chain: EVQLVESGGGVVQPGGSLRLSCAASGFSLDYYGVGWFRQAPGKEREGVSCISSSEGDTYYADSVKGRFTISRDNAKNTVYLQMNSLRPEDTALYYCATDLSDYGVCSRWPSPYDYWGQGTLVKVSSGGGGSGGGSEVQLVESGGGVVQPGGSLRLSCAASGFTFRSFGMSWVRQAPGKGPEWVSSISGSGSDTLYADSVKGRFTISRDNSKNTLYLQMNSLRPEDTALYYCTIGGSLSRSSQGTLVTVSSGGGGSGGGSEVQLVESGGGVVQPGGSLRLSCAASGFTLAYYAIGWFRQAPGKEREGVSCISGSVGTTYYADSVKGRFTISRDNAKNTVYLQMNSLRPEDTALYYCVRSSWFDCGVQGRDLGNEYDYRGQGTLVTVSSGGGGSGGGSEVQLVESGGGVVQPGGSLRLSCTASGFTFSTADMGWFRQAPGKGREFVARISGIDGTTYYDEPVKGRFTISRDNSKNTVYLQMNSLRPEDTALYYCRSPRYADQWSAYDYWGQGTLVKVSS
# B4: F027201028 (bispecific antibody)
# chain: DVQLVESGGGVVQPGGSLRLSCAASGRTFSNYAMAWFRQAPGKEREFVAVISYAGGRTYYADSVKGRFTISRDNAKNTVYLQMNSLRPEDTALYYCAAVDSPLIATHPRGYDYWGQGTLVTVSSGGGGSGGGSEVQLVESGGGVVQPGGSLRLSCAASGIIFSINAMGWYRQAPGKQRELVADIFPFGSTEYADSVKGRFTISRDNAKNTVYLQMNSLRPEDTALYYCHSYDPRGDDYWGQGTLVTVSSGGGGSGGGSEVQLVESGGGVVQPGGSLRLSCAASGFTFRSFGMSWVRQAPGKGPEWVSSISGSGSDTLYADSVKGRFTISRDNSKNTLYLQMNSLRPEDTALYYCTIGGSLSRSSQGTLVTVSSGGGGSGGGSEVQLVESGGGVVQPGGSLRLSCTASGFTFSTADMGWFRQAPGKGREFVARISGIDGTTYYDEPVKGRFTISRDNSKNTVYLQMNSLRPEDTALYYCRSPRYADQWSAYDYWGQGTLVKVSS
# B5: F027200215 (bispecific antibody)
# chain: EVQLVESGGGVVQPGGSLRLSCAASGIIFSINAMGWYRQAPGKQRELVADIFPFGSTEYADSVKGRFTISRDNAKNTVYLQMNSLRPEDTALYYCHSYDPRGDDYWGQGTLVTVSSGGGGSGGGSDVQLVESGGGVVQPGGSLRLSCAASGRTFSNYAMAWFRQAPGKEREFVAVISYAGGRTYYADSVKGRFTISRDNAKNTVYLQMNSLRPEDTALYYCAAVDSPLIATHPRGYDYWGQGTLVTVSSGGGGSGGGSEVQLVESGGGVVQPGGSLRLSCAASGFTFRSFGMSWVRQAPGKGPEWVSSISGSGSDTLYADSVKGRFTISRDNSKNTLYLQMNSLRPEDTALYYCTIGGSLSRSSQGTLVTVSSGGGGSGGGSEVQLVESGGGVVQPGGSLRLSCTASGFTFSTADMGWFRQAPGKGREFVARISGIDGTTYYDEPVKGRFTISRDNSKNTVYLQMNSLRPEDTALYYCRSPRYADQWSAYDYWGQGTLVKVSS
# B6: F027200168 (bispecific antibody)
# chain: EVQLVESGGGVVQPGGSLRLSCAASGIIFSINAMGWYRQAPGKQRELVADIFPFGSTEYADSVKGRFTISRDNAKNTVYLQMNSLRPEDTALYYCHSYDPRGDDYWGQGTLVTVSSGGGGSGGGSEVQLVESGGGVVQPGGSLRLSCAASGFTFRSFGMSWVRQAPGKGPEWVSSISGSGSDTLYADSVKGRFTISRDNSKNTLYLQMNSLRPEDTALYYCTIGGSLSRSSQGTLVTVSSGGGGSGGGSEVQLVESGGGVVQPGGSLRLSCAASGRTFSSYVMGWFRQAPGKEREFVSTINWAGSRGYYADSVKGRFTISRDNAKNTVYLQMNSLRPEDTALYYCAASAGGFLVPRVGQGYDYWGQGTLVTVSSGGGGSGGGSEVQLVESGGGVVQPGGSLRLSCTASGFTFSTADMGWFRQAPGKGREFVARISGIDGTTYYDEPVKGRFTISRDNSKNTVYLQMNSLRPEDTALYYCRSPRYADQWSAYDYWGQGTLVKVSS
# B7: F027201026 (bispecific antibody)
# chain: EVQLVESGGGVVQPGGSLRLSCTASGFTFSTADMGWFRQAPGKGREFVARISGIDGTTYYDEPVKGRFTISRDNSKNTVYLQMNSLRPEDTALYYCRSPRYADQWSAYDYWGQGTLVKVSSGGGGSGGGSEVQLVESGGGVVQPGGSLRLSCAASGFTFRSFGMSWVRQAPGKGPEWVSSISGSGSDTLYADSVKGRFTISRDNSKNTLYLQMNSLRPEDTALYYCTIGGSLSRSSQGTLVTVSSGGGGSGGGSDVQLVESGGGVVQPGGSLRLSCAASGRTFSNYAMAWFRQAPGKEREFVAVISYAGGRTYYADSVKGRFTISRDNAKNTVYLQMNSLRPEDTALYYCAAVDSPLIATHPRGYDYWGQGTLVTVSSGGGGSGGGSEVQLVESGGGVVQPGGSLRLSCAASGIIFSINAMGWYRQAPGKQRELVADIFPFGSTEYADSVKGRFTISRDNAKNTVYLQMNSLRPEDTALYYCHSYDPRGDDYWGQGTLVTVSS
# B8: F027200153 (bispecific antibody)
# chain: EVQLVESGGGVVQPGGSLRLSCTASGFTFSTADMGWFRQAPGKGREFVARISGIDGTTYYDEPVKGRFTISRDNSKNTVYLQMNSLRPEDTALYYCRSPRYADQWSAYDYWGQGTLVKVSSGGGGSGGGSEVQLVESGGGVVQPGGSLRLSCAASGFTFRSFGMSWVRQAPGKGPEWVSSISGSGSDTLYADSVKGRFTISRDNSKNTLYLQMNSLRPEDTALYYCTIGGSLSRSSQGTLVTVSSGGGGSGGGSEVQLVESGGGVVQPGGSLRLSCAASGIIFSINAMGWYRQAPGKQRELVADIFPFGSTEYADSVKGRFTISRDNAKNTVYLQMNSLRPEDTALYYCHSYDPRGDDYWGQGTLVTVSSGGGGSGGGSEVQLVESGGGVVQPGGSLRLSCAASGRTFSSYVMGWFRQAPGKEREFVSTINWAGSRGYYADSVKGRFTISRDNAKNTVYLQMNSLRPEDTALYYCAASAGGFLVPRVGQGYDYWGQGTLVTVSS
# B9: F027200154 (bispecific antibody)
# chain: EVQLVESGGGVVQPGGSLRLSCTASGFTFSTADMGWFRQAPGKGREFVARISGIDGTTYYDEPVKGRFTISRDNSKNTVYLQMNSLRPEDTALYYCRSPRYADQWSAYDYWGQGTLVKVSSGGGGSGGGSEVQLVESGGGVVQPGGSLRLSCAASGFTFRSFGMSWVRQAPGKGPEWVSSISGSGSDTLYADSVKGRFTISRDNSKNTLYLQMNSLRPEDTALYYCTIGGSLSRSSQGTLVTVSSGGGGSGGGSEVQLVESGGGVVQPGGSLRLSCAASGIIFSINAMGWYRQAPGKQRELVADIFPFGSTEYADSVKGRFTISRDNAKNTVYLQMNSLRPEDTALYYCHSYDPRGDDYWGQGTLVTVSSGGGGSGGGSDVQLVESGGGVVQPGGSLRLSCAASGRTFSNYAMAWFRQAPGKEREFVAVISYAGGRTYYADSVKGRFTISRDNAKNTVYLQMNSLRPEDTALYYCAAVDSPLIATHPRGYDYWGQGTLVTVSS
# B10: F027200989 (bispecific antibody)
# chain: EVQLVESGGGVVQPGGSLRLSCTASGFTFSTADMGWFRQAPGKGREFVARISGIDGTTYYDEPVKGRFTISRDNSKNTVYLQMNSLRPEDTALYYCRSPRYADQWSAYDYWGQGTLVKVSSGGGGSGGGSEVQLVESGGGVVQPGGSLRLSCAASGFSLDYYGVGWFRQAPGKEREGVSCISSSEGDTYYADSVKGRFTISRDNAKNTVYLQMNSLRPEDTALYYCATDLSDYGVCSRWPSPYDYWGQGTLVKVSSGGGGSGGGSEVQLVESGGGVVQPGGSLRLSCAASGFTFRSFGMSWVRQAPGKGPEWVSSISGSGSDTLYADSVKGRFTISRDNSKNTLYLQMNSLRPEDTALYYCTIGGSLSRSSQGTLVTVSSGGGGSGGGSEVQLVESGGGVVQPGGSLRLSCAASGFTLAYYAIGWFRQAPGKEREGVSCISGSVGTTYYADSVKGRFTISRDNAKNTVYLQMNSLRPEDTALYYCVRSSWFDCGVQGRDLGNEYDYRGQGTLVTVSS
# Biological target: human IL-6 (human, UniProt P05231 30-212)
# Assay: cell-based or functional assay
row,IC50 hIL-6 TF1 proliferation assay [nM],Binder
1,1.27,B1
2,0.317,B2
3,0.143,B3
4,0.293,B4
5,0.302,B5
6,0.966,B6
7,0.303,B7
8,1.03,B8
9,0.415,B9
10,0.127,B10

# Biological target: T1, cyno IL-6
# Assay: cell-based or functional assay
row,Ratio IC50 cyno IL-6/hIL-6 [ratio],Binder
1,2.5,B1
2,0.6,B2
3,29.4,B3
4,1.1,B4
5,2,B5
6,1.6,B6
7,1.2,B7
8,2.5,B8
9,2.1,B9
10,38.3,B10

# Biological target: human TNF-α (human, UniProt P01375 77-233)
# Assay: cell-based or functional assay
# Chain of human TNF-α (P01375 77-233 limits assumed): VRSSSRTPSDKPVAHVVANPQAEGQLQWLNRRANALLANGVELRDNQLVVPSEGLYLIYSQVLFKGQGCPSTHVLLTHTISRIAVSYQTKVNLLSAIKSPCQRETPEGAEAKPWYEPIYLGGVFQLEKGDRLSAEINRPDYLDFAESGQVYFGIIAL
row,IC50 hTNF-α Nfkb assay [nM],Binder
1,0.171,B1
2,0.0603,B2
3,0.061,B4
4,0.239,B5
5,0.14,B6
6,0.0852,B7
7,0.139,B8
8,0.164,B9

# Biological target: cyno TNF-α (cynomolgus monkey, UniProt P79337 77-233)
# Assay: cell-based or functional assay
# Chain of cyno TNF-α (P79337 77-233 limits assumed): as the sequence (P01375 77-233 limits assumed) above, with L37V, R44T, T72N, R138L counted along it
row,Ratio IC50 cyno TNFα/hTNFα [ratio],Binder
1,3.1,B1
2,2.5,B2
3,3.1,B4
4,2.7,B5
5,3.3,B6
6,2.2,B7
7,2.7,B8
8,2.8,B9
